Measured values reported in the supplement of paper PMC9112550, “Optimization of the antimicrobial peptide Bac7 by deep mutational scanning” (BMC Biology, 2022).

System: Escherichia coli TOP10
Assay: shrunken log2 fold change of peptide-encoding DNA abundance (4.5 h post-induction vs induction); higher = less antimicrobial activity (less host growth inhibition)
Conditions: time post-induction: 4.5 h; library: site-saturation at positions 5, 18, 19, 20
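Note: peptides expressed intracellularly from a pBAD plasmid library in pooled LB shake-flask culture, induced with 0.3% L-arabinose, DNA abundance read by NGS, three biological replicates, DESeq2 with apeglm shrinkage.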

Sequence | shrunken log2 fold change
RRIRDRPPRLPRPRPRPGTYPRP | -0.227
RRIRDRPPRLPRPRPRPGWKPRP | 0.136
RRIRDRPPRLPRPRPRPHALPRP | -0.225
RRIRDRPPRLPRPRPRPHDEPRP | 0.167
RRIRDRPPRLPRPRPRPHDIPRP | 0.0555
RRIRDRPPRLPRPRPRPHGCPRP | -0.00865
RRIRDRPPRLPRPRPRPHGHPRP | 0.0317
RRIRDRPPRLPRPRPRPHGIPRP | -0.265
RRIRDRPPRLPRPRPRPHGRPRP | 0.0088
RRIRDRPPRLPRPRPRPHHIPRP | -0.361
RRIRDRPPRLPRPRPRPHHTPRP | -1.13
RRIRDRPPRLPRPRPRPHIGPRP | -0.0522
RRIRDRPPRLPRPRPRPHIWPRP | -0.0717
RRIRDRPPRLPRPRPRPHKGPRP | 0.0993
RRIRDRPPRLPRPRPRPHLCPRP | -0.0584
RRIRDRPPRLPRPRPRPHLYPRP | 0.0039
RRIRDRPPRLPRPRPRPHNMPRP | -0.135
RRIRDRPPRLPRPRPRPHNTPRP | -0.531
RRIRDRPPRLPRPRPRPHNWPRP | -0.144
RRIRDRPPRLPRPRPRPHPMPRP | 0.0468
RRIRDRPPRLPRPRPRPHPNPRP | -0.662
RRIRDRPPRLPRPRPRPHQRPRP | 0.0159
RRIRDRPPRLPRPRPRPHRDPRP | -0.0968
RRIRDRPPRLPRPRPRPHSHPRP | -0.19
RRIRDRPPRLPRPRPRPHTAPRP | -0.0443
RRIRDRPPRLPRPRPRPHTSPRP | 0.0247
RRIRDRPPRLPRPRPRPHVIPRP | -0.0856

Sequence | shrunken log2 fold change
RRIRDRPPRLPRPRPRPIFSPRP | -0.182
RRIRDRPPRLPRPRPRPIGNPRP | 0.279
RRIRDRPPRLPRPRPRPIHDPRP | -0.58
RRIRDRPPRLPRPRPRPIHIPRP | -0.734
RRIRDRPPRLPRPRPRPIHVPRP | -0.554
RRIRDRPPRLPRPRPRPIKTPRP | 0.058
RRIRDRPPRLPRPRPRPIKVPRP | 0.00881
RRIRDRPPRLPRPRPRPINFPRP | -0.0167
RRIRDRPPRLPRPRPRPINNPRP | -1.21
RRIRDRPPRLPRPRPRPIQMPRP | 0.137
RRIRDRPPRLPRPRPRPISFPRP | -0.0563
RRIRDRPPRLPRPRPRPITQPRP | 0.000804
RRIRDRPPRLPRPRPRPIWKPRP | -0.00783
RRIRDRPPRLPRPRPRPIWLPRP | 0.0516
RRIRDRPPRLPRPRPRPIWPPRP | 0.0998
RRIRDRPPRLPRPRPRPIYGPRP | -0.0774
RRIRDRPPRLPRPRPRPIYHPRP | -0.827
RRIRDRPPRLPRPRPRPIYVPRP | -0.0326
RRIRDRPPRLPRPRPRPKERPRP | -0.0193
RRIRDRPPRLPRPRPRPKHGPRP | 0.0517
RRIRDRPPRLPRPRPRPKHHPRP | -0.272
RRIRDRPPRLPRPRPRPKHPPRP | 0.0483
RRIRDRPPRLPRPRPRPKHTPRP | 0.136
RRIRDRPPRLPRPRPRPKIAPRP | -0.0493
RRIRDRPPRLPRPRPRPKIKPRP | 2.05
RRIRDRPPRLPRPRPRPKMGPRP | -0.0622
RRIRDRPPRLPRPRPRPKMHPRP | 0.159
